Data as given in publication PMC9008041.

Assays:
[1] = target: purified polymeric mucin MUC5B (human) (UniProt Q9HC84); assay: rate-zonal centrifugation on sucrose gradients; purified MUC5B with 200 μM CsA in PBS at pH 5.5, compared with pH 7.4; 10-35% (w/v) sucrose; MUC5B detected by slot blot
[2] = target: recombinant N-terminal protein of MUC5B (NT5B) (human) (UniProt Q9HC84); assay: rate-zonal centrifugation on sucrose gradients; recombinant NT5B or CT5B with 200 μM CsA in PBS at pH 5.5, compared with pH 7.4; 5-20% (w/v) sucrose; detected by anti-His slot blot
[3] = target: recombinant C-terminal protein of MUC5B (CT5B) (human); assay: rate-zonal centrifugation on sucrose gradients; recombinant MUC5B sub-domain (NT5B, CT5B 400 μg/mL) incubated 1 h at 37 °C with 1 mM CsA, 5-20% (w/v) sucrose in PBS pH 7.4, 210,000 g, 15 °C, 2 h 30 min; protein detected by anti-His slot blot (NT5B, CT5B) or SDS-PAGE (Cys7)
[4] = target: recombinant N-terminal protein of MUC5B (NT5B) (human) (UniProt Q9HC84); assay: as above
[5] = target: purified polymeric mucin MUC2 (human) (UniProt Q02817); assay: rate-zonal centrifugation on sucrose gradients; purified polymeric mucin incubated 1 h at 37 °C with cyclic peptide (1 mM; CsA also 200 μM and 2 mM; MUC5B 100, 200 or 400 μg/mL), 10-35% (w/v) sucrose in PBS pH 7.4, 210,000 g, 15 °C, 1 h 15 min; mucin detected in fractions and pellet by slot blot; the peptide itself is not detected
[6] = target: purified polymeric mucin MUC5AC (human) (UniProt P98088); assay: as above
[7] = target: purified polymeric mucin MUC5B (human) (UniProt Q9HC84); assay: as above

cyclosporin A (peptide) showed a fold increase of MUC5B in the pellet at pH 5.5 against pH 7.4 (200 μM CsA) [1] of 3.6 fold, a fold increase of NT5B in the pellet at pH 5.5 against pH 7.4 (200 μM CsA) [2] of 4.2 fold and a percent of CT5B in the pellet (1 mM CsA) [3] of 29.1%. The percent of NT5B in the pellet (1 mM CsA) [4] was 16.3%, the percent of MUC2 in the pellet (1 mM CsA) [5] was 14.6% and the percent of MUC5AC in the pellet (1 mM CsA) [6] was 8.2%. For the same substance, the percent of MUC5B in the pellet (1 mM CsA, MUC5B 100 μg/mL) [7] was 18.6%, the percent of MUC5B in the pellet (1 mM CsA, MUC5B 200 μg/mL) [7] was 13.3% and the percent of MUC5B in the pellet (2 mM CsA, MUC5B 200 μg/mL) [7] was 11.8%.
